From article PMC11224109, “Synthesis and preclinical evaluation of novel ^18F-vancomycin-based tracers for the detection of bacterial infections using positron emission tomography” (European Journal of Nuclear Medicine and Molecular Imaging, 2024)

Legend:
[1] = Distribution coefficient LogD7.4, shake-flask n-octanol/PBS; format: physicochemical; details: shake-flask n-octanol/PBS pH 7.4, 500 µL each, 10 µL tracer in saline, vortexed 30 s, shaken 15 min, gamma counter, mean ± SD
Protocol: The tracer distribution coefficient in n-octanol/PBS pH 7.4 (LogD7.4) was determined using a shake-flask methodology. To an Eppendorf tube containing 500 µL n-octanol and 500 µL PBS, 10 µL tracer solution in saline was added. The vial was vortexed for 30 s and placed on an Eppendorf shaker for 15 min. After incubation, layers were separated by centrifugation (1 min at 10.000 rpm) and a fraction of the n-octanol layer was pipetted off. To minimize contamination of the bottom layer with the n-octanol layer, the bottom PBS layer was collected by puncturing the bottom of the Eppendorf tube with a 22G needle and aspirating a fraction of the PBS layer. Collected fractions were weighted to correct for collected volume and subsequently measured on a calibrated gamma counter and corrected for decay. LogD7.4 was calculated as [drawing 1] .

[2] = system: Gram-positive bacteria; assay: Tracer binding to test panel of clinically relevant bacteria, Gram-positive; parameters: species or system C. acnes, E. faecalis, S. aureus, S. capitis, S. epidermidis; details: summary table
Protocol: Clinical isolates of E. cloacae, S. capitis, S. aureus, as well as type strains of E. coli, E. faecalis, K. pneumoniae, P. aeruginosa and S. epidermidis were grown under aerobic conditions in brain heart infusion broth. A clinical isolate of the anaerobic bacterium C. acnes was grown on plate in an anaerobic chamber, and subsequently cultured in liquid medium with minimal headspace. Samples from fresh bacterial cultures were normalized to an OD600 of 1.0, fixed in PBS with 0.5% paraformaldehyde (PFA) for 10 min at room temperature, and resuspended in 1 mL sterile PBS. The fixated bacteria were incubated with tracer (133 kBq per mL, 42.8 pg and 0.6 pg of [^18F]BODIPY-FL-vancomycin and [^18F]PQ-VE1-vancomycin, respectively) and washed twice with sterile PBS. […] Measurements were corrected for background and decay. Results are reported as percentage of the total tracer added.

[3] = Biodistribution in vivo and PET in healthy mice; details: for tissue uptake at 0.5 h / tissue uptake at 1 h / tissue uptake at 1.5 h: male, C57BL/6, mouse, in vivo, iv, 2 MBq, total radioactivity, Biodistribution, healthy male C57BL/6 mice, penile vein injection, gamma counter, mean of n = 3; for tissue uptake at 0.5 h: 30 min; for tissue uptake at 1 h: 60 min; for tissue uptake at 1.5 h: 90 min
Protocol: All murine experiments were approved by the Animal Care and Use Committee of the University of Groningen under license protocol number 2114768-01-001. In vivo biodistribution was performed in male C57BL/6 mice (age 8 weeks, 25 g). Per tracer, the animals were divided in three groups based on the tracer distribution times (30 min, 60 min, and 90 min). […] Each experimental arm (i.e. time point) consisted of three animals. […] Tracer was administered at t = 0 via penile vein injection (2.0 ± 0.9 MBq in 100 µL 0.9% saline solution, Supplemental Table 2). After tracer administration, the animals were transferred to a Siemens Focus 220 microPET small animal scanner (Siemens, Munich, Germany) and scanned for the designated time, followed by a transmission scan of 10 min for attenuation correction. PET data were normalized and corrected for decay, after which the PET data were reconstructed using OSEM2D-Z1-SC-256. The PET data frames used for reconstruction were: 6 × 10 s, 4 × 30 s, 2 × 60 s, 120 s, 180 s, 4 × 300 s, 3 × 600 s, 1200 s or until the designated scan time was reached, taking into account a 10-min transmission scan following the emission scan. Next, animals were terminated, and organs harvested to assay biodistribution in a calibrated gamma counter (Wizard2, Perkin Elmer, Waltham, United States).

[4] = Summary of tracer stability in vitro and in vivo; details: summary table, in vitro and in vivo
Protocol: Stability of the tracers was determined in PBS and human plasma. In a typical experiment, 1 MBq of radioactivity (10–20 µL) was added to 250 µL of PBS or human plasma. Samples were heated to 37 °C on a shaker and sampled at fixed intervals. For samples containing human plasma, protein was precipitated using two volumes of cold MeCN. Precipitated samples were briefly centrifuged to pellet the insoluble fraction and supernatant was used for stability assessment. Supernatant (1 µL) was loaded on a TLC plate and imaged using BAS-IP MS 2025 E plates (Fujifilm, Tokyo, Japan) on an Amersham Typhoon Biomolecular Imager (GE Healthcare Bio-Sciences Corp, Chicago, United States) equipped with a phosphor imaging stage. [^18F]BODIPY-FL-vancomycin has an Rf of 0.68 (petroleum ether/MeOH 3:1), [^18F]FB-vancomycin has an Rf of 0.66 (2 M NaOAc/MeOH 5:1). For [^18F]PQ-VE1-vancomycin, conditions described in [44] were used.

CN[C@H](CC(C)C)C(=O)N[C@H]1C(=O)N[C@@H](CC(N)=O)C(=O)N[C@H]2C(=O)N[C@H]3C(=O)N[C@H](C(=O)N[C@H](C(=O)O)c4cc(O)cc(O)c4-c4cc3ccc4O)[C@H](O)c3ccc(c(Cl)c3)Oc3cc2cc(c3O[C@@H]2O[C@H](CO)[C@@H](O)[C@H](O)[C@H]2O[C@H]2C[C@](C)(NC(=O)c3ccc4c5c(c6ccccc6c4c3)OCC(OCCF)O5)[C@H](O)[C@H](C)O2)Oc2ccc(cc2Cl)[C@H]1O (stereo partly shown) [[^18F]PQ-VE1-vancomycin]
LogD7.4 [1]: -0.51 ± 0.07 (n = 9) | Binding to Gram-positive bacteria in vitro [2]: Binding to Gram-positive bacteria in vitro | Crossing of the blood-brain barrier (BBB) ([3]; healthy mice, intravenous injection): no substantial signal was observed in the brain | Accumulation ([3]; healthy mice, summary table): Accumulation in spleen, liver and lungs | Clearance ([3]; healthy mice, summary table): Slow renal clearance | Muscle uptake ([3]; healthy mice, summary table): Low muscle uptake | tissue uptake at 0.5 h ([3]; Bladder): 3.12 %ID/g | tissue uptake at 1 h ([3]; Bladder): 3.83 %ID/g | tissue uptake at 1.5 h ([3]; Bladder): 3.73 %ID/g | tissue uptake at 0.5 h ([3]; Bone): 1.14 %ID/g | tissue uptake at 1 h ([3]; Bone): 1.34 %ID/g | tissue uptake at 1.5 h ([3]; Bone): 0.75 %ID/g | tissue uptake at 0.5 h ([3]; Brain): 0.14 %ID/g | tissue uptake at 1 h ([3]; Brain): 0.14 %ID/g | tissue uptake at 1.5 h ([3]; Brain): 0.17 %ID/g | tissue uptake at 0.5 h ([3]; Fat): 0.81 %ID/g | tissue uptake at 1 h ([3]; Fat): 0.79 %ID/g | tissue uptake at 1.5 h ([3]; Fat): 0.55 %ID/g | tissue uptake at 0.5 h ([3]; Heart): 3.54 %ID/g | tissue uptake at 1 h ([3]; Heart): 2.6 %ID/g | tissue uptake at 1.5 h ([3]; Heart): 1.82 %ID/g | tissue uptake at 0.5 h ([3]; Kidneys): 3.37 %ID/g | tissue uptake at 1 h ([3]; Kidneys): 2.73 %ID/g | tissue uptake at 1.5 h ([3]; Kidneys): 2.04 %ID/g | tissue uptake at 0.5 h ([3]; Large intestine): 2.28 %ID/g | tissue uptake at 1 h ([3]; Large intestine): 1.81 %ID/g | tissue uptake at 1.5 h ([3]; Large intestine): 1.98 %ID/g | tissue uptake at 0.5 h ([3]; Liver): 10.5 %ID/g | tissue uptake at 1 h ([3]; Liver): 9.33 %ID/g | tissue uptake at 1.5 h ([3]; Liver): 7.72 %ID/g | tissue uptake at 0.5 h ([3]; Lungs): 4.71 %ID/g | tissue uptake at 1 h ([3]; Lungs): 3.8 %ID/g | tissue uptake at 1.5 h ([3]; Lungs): 3.21 %ID/g | tissue uptake at 0.5 h ([3]; Muscle): 0.86 %ID/g | tissue uptake at 1 h ([3]; Muscle): 0.85 %ID/g | tissue uptake at 1.5 h ([3]; Muscle): 0.6 %ID/g | tissue uptake at 0.5 h ([3]; Plasma): 6.12 %ID/g | tissue uptake at 1 h ([3]; Plasma): 4.47 %ID/g | tissue uptake at 1.5 h ([3]; Plasma): 2.88 %ID/g | tissue uptake at 0.5 h ([3]; Small intestine): 2.99 %ID/g | tissue uptake at 1 h ([3]; Small intestine): 2.19 %ID/g | tissue uptake at 1.5 h ([3]; Small intestine): 1.79 %ID/g | tissue uptake at 0.5 h ([3]; Spleen): 7.89 %ID/g | tissue uptake at 1 h ([3]; Spleen): 11.5 %ID/g | tissue uptake at 1.5 h ([3]; Spleen): 8.39 %ID/g | tissue uptake at 0.5 h ([3]; Stomach): 2.28 %ID/g | tissue uptake at 1 h ([3]; Stomach): 2.45 %ID/g | tissue uptake at 1.5 h ([3]; Stomach): 1.92 %ID/g | tissue uptake at 0.5 h ([3]; Whole blood): 3.71 %ID/g | tissue uptake at 1 h ([3]; Whole blood): 2.56 %ID/g | tissue uptake at 1.5 h ([3]; Whole blood): 1.86 %ID/g | Stability [4]: Stable in vitro and in vivo up to 2 h.
